Results taken from article PMC8259991, “Transgenerational inheritance of centromere identity requires the CENP-A N-terminal tail in the C. elegans maternal germ line” (PLoS Biology, 2021).

Molecular target: T1, KNL-2 central region (aa 269-470), recombinant (C. elegans, UniProt O44548 269-470)
T1 construct: The His9-MBP tag was cut off with TEV protease after mixing and before the pull-down; also called KNL-2 central fragment; source: E. coli BL21-Star, purified (MBP FF crude column, desalting); not shown: His9-MBP, N-terminal, cleaved
T1 sequence (looked up): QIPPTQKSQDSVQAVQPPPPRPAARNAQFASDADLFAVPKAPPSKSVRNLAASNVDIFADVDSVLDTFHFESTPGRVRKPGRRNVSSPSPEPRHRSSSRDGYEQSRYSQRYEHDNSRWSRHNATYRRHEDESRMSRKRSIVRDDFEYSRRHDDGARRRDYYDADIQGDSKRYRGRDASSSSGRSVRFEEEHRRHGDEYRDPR
Assay: pull-down; recombinant proteins mixed in equimolar amounts, 1 h at RT, TEV digestion 30 min at RT, glutathione magnetic agarose beads 1 h at RT; SDS-PAGE with Coomassie stain
Details: both partners purified

B1: CENP-A N-terminal tail (aa 1-179) fused to GST (domain or fragment, C. elegans, UniProt P34470 1-179, looked up)
chain: MADDTPIIEEIAEQNESVTRIMQRLKHDMQRVTSVPGFNTSAAGVNDLIDILNQYKKELEDDAANDYTEAHIHKIRLVTGKRNQYVLKLKQAEDEYHARKEQARRRASSMDFTVGRNSTNLVDYSHGRHHMPSYRRHDSSDEENYSMDGTNGDGNRAGPSNPDRGNRTGPSSSDRVRMR
notes: CENP-A homolog HCP-3, C. elegans, residues 1-179 (N-terminal tail); The His9-MBP tag was cut off with TEV protease after the two proteins had been mixed and before the pull-down on glutathione beads; also called His9-MBP-TEV-CENP-A^1-179-GST; GST::CENP-A N-terminal tail; source: E. coli BL21-Star, purified (Ni-charged chelating HiTrap column, desalting); not shown: His9-MBP, N-terminal, cleaved; …
  binding result: binds
